Reference: patent US20220178930A1
Where “and” joins values, the source holds several entries; their conditions need not be identical. Equal values may be shown once.

Key:
Galectin-9 (human) [1] = molecular target: Galectin-9 (human) (UniProt O00182); experiment: flow cytometry, EPCAM+ tumor cells, S3 organoid fraction, CRC liver metastasis
Galectin-9 (human) [2] = molecular target: Galectin-9 (human) (UniProt O00182); experiment: flow cytometry, CD11b+ myeloid cells, S3 organoid fraction, Pancreas NET
Galectin-9 (human) [3] = molecular target: Galectin-9 (human) (UniProt O00182); experiment: flow cytometry, CD11b+ myeloid cells, S3 organoid fraction, HCC
Galectin-9 (human) [4] = molecular target: Galectin-9 (human) (UniProt O00182); experiment: flow cytometry, EPCAM+ tumor cells, S2 single cell fraction, CRC liver metastasis
Galectin-9 (human) [5] = molecular target: Galectin-9 (human) (UniProt O00182); experiment: flow cytometry, EPCAM+ tumor cells, S2 single cell fraction, PDA
Galectin-9 (human) [6] = molecular target: Galectin-9 (human) (UniProt O00182); experiment: flow cytometry, CD3+ T cells, S3 organoid fraction, HCC
Galectin-9 (human) [7] = molecular target: Galectin-9 (human) (UniProt O00182); experiment: flow cytometry, CD3+ T cells, S2 single cell fraction, CRC liver metastasis
Galectin-9 (human) [8] = molecular target: Galectin-9 (human) (UniProt O00182); experiment: flow cytometry, CD11b+ myeloid cells, S2 single cell fraction, PDA
Galectin-9 (human) [9] = molecular target: Galectin-9 (human) (UniProt O00182); experiment: flow cytometry, CD11b+ myeloid cells, S2 single cell fraction, CRC
Galectin-9 (human) [10] = molecular target: Galectin-9 (human) (UniProt O00182); experiment: flow cytometry, CD3+ T cells, S2 single cell fraction, PDA
Galectin-9 (human) [11] = molecular target: Galectin-9 (human) (UniProt O00182); experiment: flow cytometry, CD11b+ myeloid cells, S2 single cell fraction, CRC liver metastasis
Galectin-9 (human) [12] = molecular target: Galectin-9 (human) (UniProt O00182); experiment: flow cytometry, EPCAM+ tumor cells, S2 single cell fraction, Pancreas NET
Galectin-9 (human) [13] = molecular target: Galectin-9 (human) (UniProt O00182); experiment: flow cytometry, CD3+ T cells, S3 organoid fraction, Pancreas NET
Galectin-9 (human) [14] = molecular target: Galectin-9 (human) (UniProt O00182); experiment: flow cytometry, CD11b+ myeloid cells, S3 organoid fraction, PDA
Galectin-9 (human) [15] = molecular target: Galectin-9 (human) (UniProt O00182); experiment: flow cytometry, CD3+ T cells, S2 single cell fraction, Pancreas NET
Galectin-9 (human) [16] = molecular target: Galectin-9 (human) (UniProt O00182); experiment: flow cytometry, EPCAM+ tumor cells, S2 single cell fraction, Liver NET
Galectin-9 (human) [17] = molecular target: Galectin-9 (human) (UniProt O00182); experiment: flow cytometry, CD11b+ myeloid cells, S3 organoid fraction, CRC liver metastasis
Galectin-9 (human) [18] = molecular target: Galectin-9 (human) (UniProt O00182); experiment: flow cytometry, CD11b+ myeloid cells, S3 organoid fraction, CRC
Galectin-9 (human) [19] = molecular target: Galectin-9 (human) (UniProt O00182); experiment: flow cytometry, EPCAM+ tumor cells, S3 organoid fraction, CRC
Galectin-9 (human) [20] = molecular target: Galectin-9 (human) (UniProt O00182); experiment: flow cytometry, CD3+ T cells, S3 organoid fraction, PDA
Galectin-9 (human) [21] = molecular target: Galectin-9 (human) (UniProt O00182); experiment: flow cytometry, CD3+ T cells, S2 single cell fraction, CRC
Galectin-9 (human) [22] = molecular target: Galectin-9 (human) (UniProt O00182); experiment: flow cytometry, CD3+ T cells, S3 organoid fraction, CRC liver metastasis
Galectin-9 (human) [23] = molecular target: Galectin-9 (human) (UniProt O00182); experiment: flow cytometry, EPCAM+ tumor cells, S3 organoid fraction, Liver NET
Galectin-9 (human) [24] = molecular target: Galectin-9 (human) (UniProt O00182); experiment: flow cytometry, EPCAM+ tumor cells, S2 single cell fraction, CRC
Galectin-9 (human) [25] = molecular target: Galectin-9 (human) (UniProt O00182); experiment: flow cytometry, EPCAM+ tumor cells, S3 organoid fraction, PDA
Galectin-9 (human) [26] = molecular target: Galectin-9 (human) (UniProt O00182); experiment: flow cytometry, EPCAM+ tumor cells, S3 organoid fraction, HCC
Galectin-9 (human) [27] = molecular target: Galectin-9 (human) (UniProt O00182); experiment: flow cytometry, EPCAM+ tumor cells, S3 organoid fraction, Pancreas NET
Galectin-9 (human) [28] = molecular target: Galectin-9 (human) (UniProt O00182); experiment: flow cytometry, CD3+ T cells, S3 organoid fraction, CRC
Galectin-9 (human) [29] = molecular target: Galectin-9 (human) (UniProt O00182); experiment: flow cytometry, CD11b+ myeloid cells, S2 single cell fraction, Pancreas NET

Chain of Galectin-9 (human) (O00182 whole entry): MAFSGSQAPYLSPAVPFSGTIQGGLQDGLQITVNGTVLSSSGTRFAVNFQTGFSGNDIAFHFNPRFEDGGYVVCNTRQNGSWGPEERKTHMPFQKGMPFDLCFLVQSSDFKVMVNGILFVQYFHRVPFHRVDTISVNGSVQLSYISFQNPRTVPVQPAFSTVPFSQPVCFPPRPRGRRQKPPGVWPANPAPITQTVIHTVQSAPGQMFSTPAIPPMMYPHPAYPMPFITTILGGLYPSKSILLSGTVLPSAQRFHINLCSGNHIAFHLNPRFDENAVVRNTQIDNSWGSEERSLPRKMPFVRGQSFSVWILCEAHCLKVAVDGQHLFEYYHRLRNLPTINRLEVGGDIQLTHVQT

A % Gal9 expression based on staining (Galectin-9 (human) [1]) of 0.06%, a % Gal9 expression based on staining (Galectin-9 (human) [2]) of 1.87% and a % Gal9 expression based on staining (Galectin-9 (human) [3]) of 1.72% were found for Fab isotype in this work. For the same substance, the % Gal9 expression based on staining (Galectin-9 (human) [4]) was 0.15%, the % Gal9 expression based on staining (Galectin-9 (human) [5]) was 0.15% and 0.88% and the % Gal9 expression based on staining (Galectin-9 (human) [6]) was 1.14%. The % Gal9 expression based on staining (Galectin-9 (human) [7]) was 0.56%, the % Gal9 expression based on staining (Galectin-9 (human) [8]) was 1.19% and 0% and the % Gal9 expression based on staining (Galectin-9 (human) [9]) was 2.86% and 5.84%. For the same substance, the % Gal9 expression based on staining (Galectin-9 (human) [10]) was 0% and 0.52%, the % Gal9 expression based on staining (Galectin-9 (human) [11]) was 1.2% and the % Gal9 expression based on staining (Galectin-9 (human) [12]) was 2.41%. The % Gal9 expression based on staining (Galectin-9 (human) [13]) was 4.96%, the % Gal9 expression based on staining (Galectin-9 (human) [14]) was 3.83% and 0.54% and the % Gal9 expression based on staining (Galectin-9 (human) [15]) was 32.2%. For the same substance, the % Gal9 expression based on staining (Galectin-9 (human) [16]) was 0.45%, the % Gal9 expression based on staining (Galectin-9 (human) [17]) was 1.5% and the % Gal9 expression based on staining (Galectin-9 (human) [18]) was 0.38% and 11.8% and 2.4%. The % Gal9 expression based on staining (Galectin-9 (human) [19]) was 0.21% and 2.27% and 0.55%, the % Gal9 expression based on staining (Galectin-9 (human) [20]) was 0% and 0.59% and the % Gal9 expression based on staining (Galectin-9 (human) [21]) was 2.5% and 1.59%. For the same substance, the % Gal9 expression based on staining (Galectin-9 (human) [22]) was 0%, the % Gal9 expression based on staining (Galectin-9 (human) [23]) was 0.02% and the % Gal9 expression based on staining (Galectin-9 (human) [24]) was 0.64% and 3.97%. The % Gal9 expression based on staining (Galectin-9 (human) [25]) was 0.17% and 0.94%, the % Gal9 expression based on staining (Galectin-9 (human) [26]) was 5.84% and the % Gal9 expression based on staining (Galectin-9 (human) [27]) was 4.19%. The % Gal9 expression based on staining (Galectin-9 (human) [28]) was 0% and 15.3% and 0.87% and the % Gal9 expression based on staining (Galectin-9 (human) [29]) was 16.2%.
